Reference: article PMC8291550

Biological target: rat skeletal muscle sodium channel rNaV1.4 (UniProt P15390)
Test: washing-out time-course analysis (electrophysiology)
Conditions: read off a plot

Chain of UniProt P15390 (P15390 whole entry): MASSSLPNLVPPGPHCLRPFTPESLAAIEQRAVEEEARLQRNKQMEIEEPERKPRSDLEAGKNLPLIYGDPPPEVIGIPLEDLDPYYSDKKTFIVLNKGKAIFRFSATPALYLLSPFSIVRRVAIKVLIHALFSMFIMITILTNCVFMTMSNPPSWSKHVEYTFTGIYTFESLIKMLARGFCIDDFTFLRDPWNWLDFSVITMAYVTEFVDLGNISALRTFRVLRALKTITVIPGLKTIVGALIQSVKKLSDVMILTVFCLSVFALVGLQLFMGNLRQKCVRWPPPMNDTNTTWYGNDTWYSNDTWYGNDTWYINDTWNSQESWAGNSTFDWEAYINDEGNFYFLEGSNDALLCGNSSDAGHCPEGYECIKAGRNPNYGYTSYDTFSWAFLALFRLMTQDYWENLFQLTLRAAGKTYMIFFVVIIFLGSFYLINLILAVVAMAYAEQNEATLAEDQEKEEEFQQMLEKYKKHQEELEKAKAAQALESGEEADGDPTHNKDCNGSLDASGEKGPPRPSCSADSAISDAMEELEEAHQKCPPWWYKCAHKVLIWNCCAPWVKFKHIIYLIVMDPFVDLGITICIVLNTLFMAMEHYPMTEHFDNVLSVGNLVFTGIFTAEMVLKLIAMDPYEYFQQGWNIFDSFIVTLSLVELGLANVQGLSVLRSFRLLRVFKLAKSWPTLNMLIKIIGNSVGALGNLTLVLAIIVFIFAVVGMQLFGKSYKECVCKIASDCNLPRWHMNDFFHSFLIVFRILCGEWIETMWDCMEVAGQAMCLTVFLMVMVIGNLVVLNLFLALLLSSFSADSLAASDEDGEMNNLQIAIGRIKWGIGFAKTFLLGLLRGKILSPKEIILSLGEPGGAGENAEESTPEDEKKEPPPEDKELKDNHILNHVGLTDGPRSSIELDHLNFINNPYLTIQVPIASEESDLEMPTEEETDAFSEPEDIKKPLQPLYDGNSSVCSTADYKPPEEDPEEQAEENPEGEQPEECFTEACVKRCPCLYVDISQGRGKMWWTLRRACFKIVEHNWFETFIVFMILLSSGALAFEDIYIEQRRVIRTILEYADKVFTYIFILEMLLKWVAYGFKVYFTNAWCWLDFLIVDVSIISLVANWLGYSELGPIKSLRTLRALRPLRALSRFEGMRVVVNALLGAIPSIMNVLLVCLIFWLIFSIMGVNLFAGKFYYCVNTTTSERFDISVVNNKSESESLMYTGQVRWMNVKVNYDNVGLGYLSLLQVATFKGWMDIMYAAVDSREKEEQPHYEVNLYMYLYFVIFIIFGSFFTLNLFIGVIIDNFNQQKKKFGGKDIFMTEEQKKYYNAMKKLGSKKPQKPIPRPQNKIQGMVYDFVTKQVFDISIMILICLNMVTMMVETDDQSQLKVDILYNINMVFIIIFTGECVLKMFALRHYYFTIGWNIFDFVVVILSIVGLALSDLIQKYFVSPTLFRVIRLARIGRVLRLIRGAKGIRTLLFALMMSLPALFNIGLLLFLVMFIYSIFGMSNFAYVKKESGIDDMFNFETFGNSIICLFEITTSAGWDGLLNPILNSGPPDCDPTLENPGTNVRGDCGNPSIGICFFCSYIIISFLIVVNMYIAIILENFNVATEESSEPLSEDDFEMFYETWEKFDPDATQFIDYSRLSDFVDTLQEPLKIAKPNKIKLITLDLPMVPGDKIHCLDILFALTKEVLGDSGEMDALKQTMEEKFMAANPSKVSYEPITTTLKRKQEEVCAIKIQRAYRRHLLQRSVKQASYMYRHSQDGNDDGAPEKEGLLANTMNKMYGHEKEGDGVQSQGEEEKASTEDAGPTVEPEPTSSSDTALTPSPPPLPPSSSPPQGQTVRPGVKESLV

| Substance | other: τoff [s] |
| --- | --- |
| BmK-M9 D28G | 1800 |
| BmK-M9 E32G | 1800 |
| BmK-M9 R54G | 1800 |
| BmK-M9 E10G | 1700 |
| BmK-M9 H15G | 1500 |
| BmK-M9 D3G | 1900 |
| BmK-M9 R2G | 1300 |
| BmK-M9 R58G | 2000 |
| BmK-M9 K24G | 1800 |
| BmK-M9 E20G | 1600 |
| BmK-M9 K8G | 1700 |
| BmK-M9 R41G | 1700 |
| BmK-M9 Y42G | 17 |
| BmK-M9 K62G | 8.5 |
| BmK-M9 D53G | 1700 |
| BmK-M9 H64G | 1800 |
| BmK-M9 K50G | 1600 |
